Assay [1] concerns the target 14-3-3γ (UniProt P61981). Kind of assay: fluorescence polarization titration. Particulars: reference: unphosphorylated peptide.
Assay [2] concerns the target 14-3-3ζ (UniProt P63104). The experiment in a line: fluorescence polarization titration. Particulars: reference: unphosphorylated peptide. (In general: Fluorescence polarisation rises when a labelled molecule tumbles more slowly, as on binding a larger partner.)
Assay [3] addresses 14-3-3τ (UniProt P27348). The experiment in a line: fluorescence polarization titration. Conditions: reference: unphosphorylated peptide; sites S373.
The target of assay [4] is T1, 14-3-3β (human, UniProt P31946 1-246).
T1 chain: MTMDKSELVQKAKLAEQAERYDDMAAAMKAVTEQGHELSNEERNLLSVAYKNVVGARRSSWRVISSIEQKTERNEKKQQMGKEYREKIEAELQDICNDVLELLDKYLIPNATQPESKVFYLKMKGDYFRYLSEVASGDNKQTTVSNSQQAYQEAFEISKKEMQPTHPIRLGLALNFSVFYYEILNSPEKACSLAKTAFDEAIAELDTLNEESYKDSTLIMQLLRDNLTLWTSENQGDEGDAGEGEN
The experiment in a line: fluorescence polarization titration. Particulars: reference: unphosphorylated peptide; sites S373.

Assay [5] has as its target T2, 14-3-3ε (human, UniProt P62258 1-255).
T2 chain: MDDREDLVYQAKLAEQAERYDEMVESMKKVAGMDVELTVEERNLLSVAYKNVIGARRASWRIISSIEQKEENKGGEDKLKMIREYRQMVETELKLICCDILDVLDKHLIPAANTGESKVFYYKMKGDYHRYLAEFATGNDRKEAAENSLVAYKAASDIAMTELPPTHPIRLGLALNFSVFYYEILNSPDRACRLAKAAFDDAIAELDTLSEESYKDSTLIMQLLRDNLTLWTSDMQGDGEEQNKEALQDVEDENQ
Kind of assay: fluorescence polarization titration. Conditions: reference: unphosphorylated peptide.

The target in assay [6] is TASK-1 pS392 C-terminal fluorescent peptide (human) (UniProt O14649). Kind of assay: fluorescence polarisation; 10 nM fluorescein-labelled peptide titrated with 14-3-3 protein (1 nM to 120 µM in the results, 100 µM to 1 nM in the methods); 20 mM MOPS, 150 mM NaCl, 0.005% (v/v) CHAPS pH 7.0; room temperature; monophasic fit.
Assay [7] has as its target doubly phosphorylated TASK-1 C-terminal fluorescent peptide (pS392 and pS393) (human) (UniProt O14649). The assay is described as above.
The target in assay [8] is GST-tagged TASK-3 C-terminal 15 residues fusion protein, phosphorylated with PKA catalytic subunit (human) (UniProt Q9NPC2). The experiment in a line: SPR; GST fusion protein captured by an anti-GST antibody on an HC1000m chip, phosphorylated on the chip with PKA catalytic subunit; 14-3-3 proteins as analyte; 20°C; 150 mM NaCl, 20 mM HEPES, 0.005% (v/v) Tween 20, pH 7.5; equilibrium binding isotherms.

In assay [9] the target is 14-3-3η (UniProt Q04917). Kind of assay: fluorescence polarization titration. Conditions: reference: unphosphorylated peptide; sites S393.
The target of assay [10] is T3, 14-3-3σ (human, UniProt P31947 1-248).
T3 chain: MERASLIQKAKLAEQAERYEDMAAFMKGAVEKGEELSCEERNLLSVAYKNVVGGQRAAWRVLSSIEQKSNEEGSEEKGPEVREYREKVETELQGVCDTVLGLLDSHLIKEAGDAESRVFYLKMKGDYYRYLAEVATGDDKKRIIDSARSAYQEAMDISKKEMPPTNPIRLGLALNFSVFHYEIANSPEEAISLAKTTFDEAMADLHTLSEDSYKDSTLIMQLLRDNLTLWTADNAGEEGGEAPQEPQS
The experiment in a line: fluorescence polarization titration. Particulars: reference: unphosphorylated peptide; sites S393.

Assay [11] has as its target T4, GST-tagged TASK-3 C-terminal 15 residues fusion protein, phosphorylated with PKA catalytic subunit (human, UniProt Q9NPC2 360-374).
T4 chain: {GST}-SFTDHQRLMKRRK[pS]V
Kind of assay: SPR. In general terms: Surface plasmon resonance follows binding to a sensor surface in real time, without labels.

Assay [12] has as its target T5, TASK-3 pS373 ΔV374 C-terminal fluorescent peptide (human, UniProt Q9NPC2 360-374, ΔV374, also: fluorescein label, position not given here).
T5 construct: TASK-3 (KCNK9), human, C-terminal peptide with phosphorylated S373 but lacking the C-terminal valine V374; ends at pS373; source: synthetic peptide, bought: Peps4Life Sciences
T5 peptide (looked up): SFTDHQRLMKRRK[pS]
The experiment in a line: fluorescence polarisation; 10 nM fluorescein-labelled peptide titrated with 14-3-3 protein (1 nM to 120 µM in the results, 100 µM to 1 nM in the methods); 20 mM MOPS, 150 mM NaCl, 0.005% (v/v) CHAPS pH 7.0; room temperature; monophasic fit. Particulars: both partners purified.

Assay [13] has as its target TASK-1 pS393 C-terminal fluorescent peptide (last 15 amino acids) (human) (UniProt O14649). The assay is described as above.
For assay [14], the target named is T6, 14-3-3ζ (human, UniProt P63104 1-245).
T6 chain: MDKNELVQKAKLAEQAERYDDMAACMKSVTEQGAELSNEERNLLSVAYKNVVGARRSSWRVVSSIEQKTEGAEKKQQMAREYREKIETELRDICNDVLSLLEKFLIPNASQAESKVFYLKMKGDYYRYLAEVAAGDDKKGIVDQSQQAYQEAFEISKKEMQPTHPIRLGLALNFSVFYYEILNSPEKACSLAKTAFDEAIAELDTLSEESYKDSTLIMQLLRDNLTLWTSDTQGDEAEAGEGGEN
Kind of assay: FP.

Assay [15] deals with T1, 14-3-3β. Kind of assay: FP.
Assay [16] deals with T7, 14-3-3γ (human, UniProt P61981 1-247).
T7 chain: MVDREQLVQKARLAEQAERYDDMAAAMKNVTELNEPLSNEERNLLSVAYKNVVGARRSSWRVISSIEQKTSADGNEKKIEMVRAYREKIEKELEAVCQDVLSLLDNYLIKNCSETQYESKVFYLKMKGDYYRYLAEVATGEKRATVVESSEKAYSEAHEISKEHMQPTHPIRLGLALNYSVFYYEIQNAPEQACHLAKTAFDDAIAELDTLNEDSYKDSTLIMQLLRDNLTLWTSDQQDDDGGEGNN
The experiment in a line: FP.

Assay [17] concerns the target T2, 14-3-3ε. Kind of assay: FP.
The target of assay [18] is T8, 14-3-3τ (human, UniProt P27348 1-245).
T8 chain: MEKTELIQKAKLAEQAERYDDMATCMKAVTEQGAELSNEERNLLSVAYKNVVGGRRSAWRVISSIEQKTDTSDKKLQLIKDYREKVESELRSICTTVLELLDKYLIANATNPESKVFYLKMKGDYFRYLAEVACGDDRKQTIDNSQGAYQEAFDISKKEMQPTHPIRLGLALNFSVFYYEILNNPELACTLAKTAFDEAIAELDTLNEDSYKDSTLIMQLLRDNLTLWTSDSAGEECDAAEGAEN
Kind of assay: FP.

Assay [19] deals with T9, 14-3-3η (human, UniProt Q04917 1-246).
T9 chain: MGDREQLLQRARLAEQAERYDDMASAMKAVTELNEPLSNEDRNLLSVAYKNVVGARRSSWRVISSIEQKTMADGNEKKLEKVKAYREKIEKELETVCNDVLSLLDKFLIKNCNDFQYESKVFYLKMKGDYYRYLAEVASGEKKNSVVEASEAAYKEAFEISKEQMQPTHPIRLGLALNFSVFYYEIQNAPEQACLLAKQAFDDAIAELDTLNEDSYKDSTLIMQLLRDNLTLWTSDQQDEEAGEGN
Kind of assay: FP.

In assay [20] the target is T3, 14-3-3σ. Kind of assay: FP.

Non-standard residues stand in square brackets, D forms with d. No end group written: not given here. pS = N[C@@H](COP(=O)(O)O)C(=O)O

For “TASK-3 last 15 amino acids of the C-terminus (from UniProt Q9NPC2) pS373 peptide”, the “binding against the reference” value in assay [1] (sites S373), in [2] (sites S373), in assay [3], in assay [4] and in [5] (sites S373) was “gained” each time.
In the case of “14-3-3γ (from UniProt P61981 1-247) (natural protein)”, the Kd (commonly the free concentration of one partner at which half of the binding sites on the other are occupied at equilibrium, for simple one-to-one binding) turned out to be 100 µM in assay [6], 200 µM in assay [7] and 0.045 µM in assay [8].
Regarding “TASK-1 last 15 amino acids of the C-terminus (from UniProt O14649) pS393 peptide”, the “binding against the reference” value in assay [1] (sites S393), in assay [2] (sites S393), in [9], in assay [10] and in [5] (sites S393) was “gained” each time.

B1: 14-3-3ε (natural protein, human, UniProt P62258 1-255, looked up)
chain: T2 chain
notes: 14-3-3 protein epsilon, human; open reading frame inserted into pMAL2Cx; also called 14-3-3 epsilon
On to B1, for which the dissociation constant Kd in [11] came out at 0.15 µM; in assay [6], 100 µM. Further, in [12], the “fold reduction of affinity against the TASK-3 pS373 peptide with V374” value was found to be 23 fold.

B2: 14-3-3β (natural protein, human, UniProt P31946 1-246, looked up)
chain: T1 chain
notes: 14-3-3 protein beta, human; open reading frame inserted into pMAL2Cx; also called 14-3-3 beta
Regarding B2, the results for the Kd in assay [11], in [6] and in [13] were 0.181 µM, 100 µM and 7.5 µM, respectively. Also, the “fold reduction of affinity against the TASK-3 pS373 peptide with V374” value in assay [12] was 3 fold.

B3: TASK-3 pS373 C-terminal fluorescent peptide (last 15 amino acids) (peptide)
peptide: SFTDHQRLMKRRK[pS]V
modifications: also: fluorescein label, position not given here
As for B3, the Kd was 1 µM in assay [14]; 0.37 µM in assay [15]; 0.15 µM in [16]; 0.8 µM in [17]; 0.22 µM in [18].

B4: TASK-1 pS393 C-terminal fluorescent peptide (last 15 amino acids) (peptide)
peptide: SLSTFRGLMKRRS[pS]V
modifications: also: fluorescein label, position not given here
For the molecule B4, the Kd turned out to be 9.2 µM in [19]; 23 µM in assay [14]; 36 µM in assay [20]; 9.8 µM in assay [16]; 29 µM in [17].
